Experimental data published in patent publication US20140072581A1 (Zymeworks, published 2014).

T1: CD19 on RAJI (CD19+) cells (UniProt P15391 20-556, limits assumed)
T1 construct: whole, on cells
T1 sequence (looked up): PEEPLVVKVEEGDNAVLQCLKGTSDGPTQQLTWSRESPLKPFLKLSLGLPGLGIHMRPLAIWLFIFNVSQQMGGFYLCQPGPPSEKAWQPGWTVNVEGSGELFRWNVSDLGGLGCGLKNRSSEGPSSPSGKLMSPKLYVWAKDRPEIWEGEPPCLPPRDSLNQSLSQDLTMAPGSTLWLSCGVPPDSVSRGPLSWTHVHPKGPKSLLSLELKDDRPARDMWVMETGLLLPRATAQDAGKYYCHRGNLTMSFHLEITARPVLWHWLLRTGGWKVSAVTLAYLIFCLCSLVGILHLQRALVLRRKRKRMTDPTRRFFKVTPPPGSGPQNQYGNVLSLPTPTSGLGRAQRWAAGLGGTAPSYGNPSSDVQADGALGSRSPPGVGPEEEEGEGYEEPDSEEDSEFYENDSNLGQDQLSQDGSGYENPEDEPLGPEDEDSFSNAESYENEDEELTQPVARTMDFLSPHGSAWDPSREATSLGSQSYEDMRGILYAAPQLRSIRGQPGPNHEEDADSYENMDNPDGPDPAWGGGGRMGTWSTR


Columns and labels:
[1] = target: T1, CD19 on RAJI (CD19+) cells; assay: live cell ELISA on RAJI (CD19+) cells; OD450 grade at 1/60 dilution
Description: (§1) These variants were tested for their ability to bind to cells expressing the target antigen using a live cell ELISA binding assay using filter plates and wash steps carried out using a vacuum manifold (method developed by Anne Marcil at the National Research Council, Montreal, Canada). The method was carried out as follows. Cells were maintained in exponential growth phase and then washed, counted and distributed at 10E5 cells per well in 50% medium, 50% blocking buffer. Dilutions of variants in blocking buffer were added to the cells and incubated for 1 hour at 4° C. After collection and four washes in medium, an HRP-conjugated goat anti-human IgG was added to cells which were incubated for 1 hour at 4° C. After collection and four washes in medium and 3 washes in PBS, TMB substrate was added to cells which were incubated for 25 minutes at room temperature. The reaction was stopped by addition of H₂SO4 and OD read at 450 nm. The ELISA results are depicted in Tables 17 and 18. A, B, and C refer to the ratio of Chain A to Chain B used in expression of the variant: Ratio A=Chain A/Chain B=1:1 A/B=50%/50%; Ratio B=Chain A/Chain B=2:1 A/B=66%/34%; Ratio C=Chain A/Chain B=1:2 A/B=34%/66%.

[2] = target: T2, CD3 on HBP-ALL (CD3+) cells (UniProt P07766 23-207); assay: live cell ELISA on HBP-ALL (CD3+) cells; OD450 grade at 1/60 dilution
T2 construct: whole, on cells; CD3 is a multi-chain complex
Description: as §1

OD450 [1] [od]	OD450 [2] [od]	Binder
> 2	1 to 2	scMAB_LL_CD3xCD19_HH41_GSE34, variant 1846 (bispecific antibody, human IgG1, kappa, A, B and C are the chain A : chain B DNA ratios used in expression (1:1, 2:1, 1:2); also called 1846 A; 1846 B) chain 1: DIQMTQSPSSLSASVGDRVTITCSASSSVSYMNWYQQTPGKAPKRWIYDTSKLASGVPSRFSGSGSGTDYTFTISSLQPEDIATYYCQQWSSNPFTFGQGTKLQITRTVAAPSVFIFPPSDEQLKSGTASVVCLLNNFYPREAKVQWKVDNALQSGNSQESVTEQDSKDSTYSLSSTLTLSKADYEKHKVYACEVTHQGLSSPVTKSFNRGECGGSGGGSGSSADDAKKDAAKKDDAKKDDAKKDGGGSGGGSGQVQLVQSGGGVVQPGRSLRLSCKASGYTFTRYTMHWVRQAPGKGLEWIGYINPSRGYTNYNQKVKDRFTISRDNSKNTAFLQMDSLRPEDTGVYFCARYYDDHYCLDYWGQGTPVTVSSASTKGPSVFPLAPSSKSTSGGTAALGCLVKDYFPEPVTVSWNSGALTSGVHTFPAVLQSSGLYSLSSVVTVPSSSLGTQTYICNVNHKPSNTKVDKKVEPKSCDKTHTCPPCPAPELLGGPSVFLFPPKPKDTLMISRTPEVTCVVVDVSHEDPEVKFNWYVDGVEVHNAKTKPREEQYNSTYRVVSVLTVLHQDWLNGKEYKCKVSNKALPAPIEKTISKAKGQPREPQVYVYPPSRDELTKNQVSLTCLVKGFYPSDIAVEWESNGQPENNYKTTPPVLDSDGSFALVSKLTVDKSRWQQGNVFSCSVMHEALHNHYTQKSLSLSPGK chain 2: not shown
> 2	1 to 2	scMAB_LL_CD3xCD19_HH41_HH41, variant 1844 (bispecific antibody, human IgG1, kappa, B and C are the chain A : chain B DNA ratios used in expression (2:1 and 1:2); also called 1844 B; 1844 C) chain 1: DIQMTQSPSSLSASVGDRVTITCSASSSVSYMNWYQQTPGKAPKRWIYDTSKLASGVPSRFSGSGSGTDYTFTISSLQPEDIATYYCQQWSSNPFTFGQGTKLQITRTVAAPSVFIFPPSDEQLKSGTASVVCLLNNFYPREAKVQWKVDNALQSGNSQESVTEQDSKDSTYSLSSTLTLSKADYEKHKVYACEVTHQGLSSPVTKSFNRGECGGSGGGSGSSADDAKKDAAKKDDAKKDDAKKDGGGSGGGSGQVQLVQSGGGVVQPGRSLRLSCKASGYTFTRYTMHWVRQAPGKGLEWIGYINPSRGYTNYNQKVKDRFTISRDNSKNTAFLQMDSLRPEDTGVYFCARYYDDHYCLDYWGQGTPVTVSSASTKGPSVFPLAPSSKSTSGGTAALGCLVKDYFPEPVTVSWNSGALTSGVHTFPAVLQSSGLYSLSSVVTVPSSSLGTQTYICNVNHKPSNTKVDKKVEPKSCDKTHTCPPCPAPELLGGPSVFLFPPKPKDTLMISRTPEVTCVVVDVSHEDPEVKFNWYVDGVEVHNAKTKPREEQYNSTYRVVSVLTVLHQDWLNGKEYKCKVSNKALPAPIEKTISKAKGQPREPQVYVYPPSRDELTKNQVSLTCLVKGFYPSDIAVEWESNGQPENNYKTTPPVLDSDGSFALVSKLTVDKSRWQQGNVFSCSVMHEALHNHYTQKSLSLSPGK chain 2: not shown
> 2	1 to 2	scMAB_LCI_CD3xCD19_GS20-GS24_GS20-GS24, variant 1840 (bispecific antibody, also called 1840 A) chain 1: QVQLVQSGGGVVQPGRSLRLSCKASGYTFTRYTMHWVRQAPGKGLEWIGYINPSRGYTNYNQKVKDRFTISRDNSKNTAFLQMDSLRPEDTGVYFCARYYDDHYCLDYWGQGTPVTVSSGGGGSGGGGSGGGGSGGGGSDIQMTQSPSSLSASVGDRVTITCSASSSVSYMNWYQQTPGKAPKRWIYDTSKLASGVPSRFSGSGSGTDYTFTISSLQPEDIATYYCQQWSSNPFTFGQGTKLQITRTVAAPSVFIFPPSDEQLKSGTASVVCLLNNFYPREAKVQWKVDNALQSGNSQESVTEQDSKDSTYSLSSTLTLSKADYEKHKVYACEVTHQGLSSPVTKSFNRGECGGGGSGGGGSGGGGSGGGGSGGGGSTKGPSVFPLAPSSKSTSGGTAALGCLVKDYFPEPVTVSWNSGALTSGVHTFPAVLQSSGLYSLSSVVTVPSSSLGTQTYICNVNHKPSNTKVDKKVEPKSCDKTHTCPPCPAPELLGGPSVFLFPPKPKDTLMISRTPEVTCVVVDVSHEDPEVKFNWYVDGVEVHNAKTKPREEQYNSTYRVVSVLTVLHQDWLNGKEYKCKVSNKALPAPIEKTISKAKGQPREPQVYVYPPSRDELTKNQVSLTCLVKGFYPSDIAVEWESNGQPENNYKTTPPVLDSDGSFALVSKLTVDKSRWQQGNVFSCSVMHEALHNHYTQKSLSLSPGK chain 2: not shown
> 2	1 to 2	scMAB_LCI_CD3xCD19_GS20-GS24_GS20-GS24_SS, variant 1842 (bispecific antibody, human IgG1, kappa, Heterodimeric IgG1 Fc; the CH3 mutations are already in the entries; also called 1842 B) chain 1: QVQLVQSGGGVVQPGRSLRLSCKASGYTFTRYTMHWVRQAPGKCLEWIGYINPSRGYTNYNQKVKDRFTISRDNSKNTAFLQMDSLRPEDTGVYFCARYYDDHYCLDYWGQGTPVTVSSGGGGSGGGGSGGGGSGGGGSDIQMTQSPSSLSASVGDRVTITCSASSSVSYMNWYQQTPGKAPKRWIYDTSKLASGVPSRFSGSGSGTDYTFTISSLQPEDIATYYCQQWSSNPFTFGCGTKLQITRTVAAPSVFIFPPSDEQLKSGTASVVCLLNNFYPREAKVQWKVDNALQSGNSQESVTEQDSKDSTYSLSSTLTLSKADYEKHKVYACEVTHQGLSSPVTKSFNRGECGGGGSGGGGSGGGGSGGGGSGGGGSTKGPSVFPLAPSSKSTSGGTAALGCLVKDYFPEPVTVSWNSGALTSGVHTFPAVLQSSGLYSLSSVVTVPSSSLGTQTYICNVNHKPSNTKVDKKVEPKSCDKTHTCPPCPAPELLGGPSVFLFPPKPKDTLMISRTPEVTCVVVDVSHEDPEVKFNWYVDGVEVHNAKTKPREEQYNSTYRVVSVLTVLHQDWLNGKEYKCKVSNKALPAPIEKTISKAKGQPREPQVYVYPPSRDELTKNQVSLTCLVKGFYPSDIAVEWESNGQPENNYKTTPPVLDSDGSFALVSKLTVDKSRWQQGNVFSCSVMHEALHNHYTQKSLSLSPGK chain 2: not shown
> 2	1 to 2	scMAB_LCI_CD3xCD19_GS15-GS24_GS15-GS24, variant 1841 (bispecific antibody, human IgG1, kappa, Heterodimeric IgG1 Fc; the CH3 mutations are already in the entries; also called 1841 B) chain 1: QVQLVQSGGGVVQPGRSLRLSCKASGYTFTRYTMHWVRQAPGKGLEWIGYINPSRGYTNYNQKVKDRFTISRDNSKNTAFLQMDSLRPEDTGVYFCARYYDDHYCLDYWGQGTPVTVSSGGGGSGGGGSGGGGSDIQMTQSPSSLSASVGDRVTITCSASSSVSYMNWYQQTPGKAPKRWIYDTSKLASGVPSRFSGSGSGTDYTFTISSLQPEDIATYYCQQWSSNPFTFGQGTKLQITRTVAAPSVFIFPPSDEQLKSGTASVVCLLNNFYPREAKVQWKVDNALQSGNSQESVTEQDSKDSTYSLSSTLTLSKADYEKHKVYACEVTHQGLSSPVTKSFNRGECGGGGSGGGGSGGGGSGGGGSGGGGSTKGPSVFPLAPSSKSTSGGTAALGCLVKDYFPEPVTVSWNSGALTSGVHTFPAVLQSSGLYSLSSVVTVPSSSLGTQTYICNVNHKPSNTKVDKKVEPKSCDKTHTCPPCPAPELLGGPSVFLFPPKPKDTLMISRTPEVTCVVVDVSHEDPEVKFNWYVDGVEVHNAKTKPREEQYNSTYRVVSVLTVLHQDWLNGKEYKCKVSNKALPAPIEKTISKAKGQPREPQVYVYPPSRDELTKNQVSLTCLVKGFYPSDIAVEWESNGQPENNYKTTPPVLDSDGSFALVSKLTVDKSRWQQGNVFSCSVMHEALHNHYTQKSLSLSPGK chain 2: not shown
> 2	1 to 2	scMAB_LCI_CD3xCD19_GS15-GS24_GS15-GS24_SS, variant 1843 (bispecific antibody, human IgG1, kappa, Heterodimeric IgG1 Fc; the CH3 mutations are already in the entries; also called 1843 B) chain 1: QVQLVQSGGGVVQPGRSLRLSCKASGYTFTRYTMHWVRQAPGKCLEWIGYINPSRGYTNYNQKVKDRFTISRDNSKNTAFLQMDSLRPEDTGVYFCARYYDDHYCLDYWGQGTPVTVSSGGGGSGGGGSGGGGSDIQMTQSPSSLSASVGDRVTITCSASSSVSYMNWYQQTPGKAPKRWIYDTSKLASGVPSRFSGSGSGTDYTFTISSLQPEDIATYYCQQWSSNPFTFGCGTKLQITRTVAAPSVFIFPPSDEQLKSGTASVVCLLNNFYPREAKVQWKVDNALQSGNSQESVTEQDSKDSTYSLSSTLTLSKADYEKHKVYACEVTHQGLSSPVTKSFNRGECGGGGSGGGGSGGGGSGGGGSGGGGSTKGPSVFPLAPSSKSTSGGTAALGCLVKDYFPEPVTVSWNSGALTSGVHTFPAVLQSSGLYSLSSVVTVPSSSLGTQTYICNVNHKPSNTKVDKKVEPKSCDKTHTCPPCPAPELLGGPSVFLFPPKPKDTLMISRTPEVTCVVVDVSHEDPEVKFNWYVDGVEVHNAKTKPREEQYNSTYRVVSVLTVLHQDWLNGKEYKCKVSNKALPAPIEKTISKAKGQPREPQVYVYPPSRDELTKNQVSLTCLVKGFYPSDIAVEWESNGQPENNYKTTPPVLDSDGSFALVSKLTVDKSRWQQGNVFSCSVMHEALHNHYTQKSLSLSPGK chain 2: not shown
> 2	1 to 2	scMAB_LL_CD3xCD19_GSE34_GSE34, variant 1845 (bispecific antibody, A, B and C are the chain A : chain B DNA ratios used in expression (1:1, 2:1, 1:2); also called 1845 A; 1845 B) chain 1: DIQMTQSPSSLSASVGDRVTITCSASSSVSYMNWYQQTPGKAPKRWIYDTSKLASGVPSRFSGSGSGTDYTFTISSLQPEDIATYYCQQWSSNPFTFGQGTKLQITRTVAAPSVFIFPPSDEQLKSGTASVVCLLNNFYPREAKVQWKVDNALQSGNSQESVTEQDSKDSTYSLSSTLTLSKADYEKHKVYACEVTHQGLSSPVTKSFNRGECSGGGSGGGSEGGGSEGGGSEGGGSEGGGSGGGSGQVQLVQSGGGVVQPGRSLRLSCKASGYTFTRYTMHWVRQAPGKGLEWIGYINPSRGYTNYNQKVKDRFTISRDNSKNTAFLQMDSLRPEDTGVYFCARYYDDHYCLDYWGQGTPVTVSSASTKGPSVFPLAPSSKSTSGGTAALGCLVKDYFPEPVTVSWNSGALTSGVHTFPAVLQSSGLYSLSSVVTVPSSSLGTQTYICNVNHKPSNTKVDKKVEPKSCDKTHTCPPCPAPELLGGPSVFLFPPKPKDTLMISRTPEVTCVVVDVSHEDPEVKFNWYVDGVEVHNAKTKPREEQYNSTYRVVSVLTVLHQDWLNGKEYKCKVSNKALPAPIEKTISKAKGQPREPQVYVYPPSRDELTKNQVSLTCLVKGFYPSDIAVEWESNGQPENNYKTTPPVLDSDGSFALVSKLTVDKSRWQQGNVFSCSVMHEALHNHYTQKSLSLSPGK chain 2: not shown
